Measurements: paper PMC10474099, “SLC39A10 promotes malignant phenotypes of gastric cancer cells by activating the CK2-mediated MAPK/ERK and PI3K/AKT pathways” (Experimental & Molecular Medicine, 2023)

Target: the molecule itself
Test: native gel or EMSA; native PAGE with Coomassie blue staining; CK2β refolded in 20 mM Tris pH 7.2, 5 mM DTT with 4 μM ZnSO4 (presence of Zn2+); monomer to dimer

B1: CK2β (casein kinase 2 regulatory β subunit), human, recombinant His-tagged (natural protein)
chain: not shown
notes: human CK2β (casein kinase 2 beta subunit), Gene ID 1460, CSNK2B; cloned into pET-28a(+); The plasmid is named pET-28a (+)-HIS-CK2β; also called CSNK2B; HIS-CK2β
  stoichiometry N: 2
